Test results as given in US20160304621A1.

Legend:
[1] = biological target: recombinant human HER2 protein HER2-ECD with His-tag (human) (UniProt P04626); experiment: ELISA on coated HER2-ECD, 11-point dilution from 1000 ng/ml
[2] = biological target: recombinant human HER2 protein HER2-ECD with His-tag (human) (UniProt P04626); experiment: ELISA on coated HER2-ECD, average of 3 independent assays, single site fit

Chain of RC48-vc-MMAE (VH): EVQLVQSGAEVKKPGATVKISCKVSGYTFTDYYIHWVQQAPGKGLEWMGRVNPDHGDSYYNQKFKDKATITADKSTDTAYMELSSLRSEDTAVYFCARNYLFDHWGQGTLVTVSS
Chain of RC48-vc-MMAE (VL): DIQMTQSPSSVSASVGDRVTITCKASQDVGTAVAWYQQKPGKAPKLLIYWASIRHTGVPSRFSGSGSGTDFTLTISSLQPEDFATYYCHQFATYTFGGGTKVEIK
Chain of RC48-vc-MMAF (VH): as the sequence (VH) above
Chain of RC48-vc-MMAF (VL): as the sequence (VL) above
Chain of humanized anti-HER2 antibody RC48 (VH): as the sequence (VH) above
Chain of humanized anti-HER2 antibody RC48 (VL): as the sequence (VL) above

Affinity [1] [ng/mL] | Molar equivalent [1] [pmol/L] | Kd [2] [pM] | Substance
2.24 | 15.2 | – | RC48-vc-MMAE
3.35 | 13.5 | – | RC48-vc-MMAF
– | – | 44 | humanized anti-HER2 antibody RC48
– | – | 77 | human-murine chimeric antibody cRC48
